In US20210155676A1 (Gilead, published 2021):
Positions count from the first letter of the chain named.

What was measured:
[1] = target: human FcγRIIIA on primary NK effector cells (human, UniProt P08637 17-254); experiment: cell-based or functional assay
Human FcRn [2] = target: T1, Human FcRn (human, UniProt P55899 24-297; P61769 21-119); experiment: ELISA, FcRn coated on plate, pH 6.0
T1 construct: also called neonatal Fc receptor
Method: (§1) The binding of antibodies to FcRn of various species at different pHs was determined. A 96-well Maxisorp plate was coated with 100 ul of 5 μg/ml FcRn. The plate was incubated overnight at 4° C., and then blocked with 4% skim milk for 2 hr at room temperature after washing 3 times with 0.05% Tween 20 washing buffer. The plate was incubated with 3 fold serial dilution of primary antibody for 1 hr at room temperature. The plate was then washed 3 times and 100 of Fab-anti-human Fab-HRP or Goat anti-human IgG-HRP secondary antibody diluted in 4% skimmed milk was added. Plates were then incubated 50 min at room temperature, washed three times, and 100 μL fresh TMB substrate was added. Plates were developed for 3 minutes on bench with gentle shaking. Plate was quenched with 100 μL 1M HCl, shaken briefly, read at A450 on a spectramax m5 plate reader.

Human FcRn [3] = target: T1, Human FcRn; experiment: ELISA, ratio of EC50 at pH 7.0 to EC50 at pH 6.0
Method: as §1

Human FcRn [4] = target: T1, Human FcRn; experiment: ELISA, FcRn coated on plate, pH 7.0
Method: as §1

Human FcRn [5] = target: T1, Human FcRn; experiment: ELISA, pH 7.0/6.0 ratio relative to PGT121
Method: as §1

[6] = target: HIV-1 Env of subtype B isolate MGRM-B-132 (HIV-1); experiment: cell-based or functional assay
[7] = target: HIV-1 Env of subtype B isolate MGRM-B-112 (HIV-1); experiment: cell-based or functional assay
[8] = target: HIV-1 Env of subtype B isolate MGRM-B-110 (HIV-1); experiment: cell-based or functional assay
[9] = target: HIV-1 Env of subtype B isolate MGRM-B-118 (HIV-1); experiment: cell-based or functional assay
[10] = target: HIV-1 Env of subtype B isolate MGRM-B-136 (HIV-1); experiment: cell-based or functional assay
[11] = target: HIV-1 Env of subtype B isolate MGRM-B-111 (HIV-1); experiment: cell-based or functional assay
[12] = target: HIV-1 Env of subtype B isolate MGRM-B-105 (HIV-1); experiment: cell-based or functional assay
[13] = target: HIV-1 Env of subtype B isolate MGRM-B-115 (HIV-1); experiment: cell-based or functional assay
[14] = target: HIV-1 Env of subtype B isolate MGRM-B-106 (HIV-1); experiment: cell-based or functional assay
[15] = target: HIV-1 Env of subtype B virus 15-101608 (HIV-1); experiment: cell-based or functional assay
[16] = target: HIV-1 Env of subtype B virus 15-124934 (HIV-1); experiment: cell-based or functional assay
[17] = target: HIV-1 Env of subtype B virus 15-102514 (HIV-1); experiment: cell-based or functional assay
[18] = target: HIV-1 Env of subtype B virus 15-124964 (HIV-1); experiment: cell-based or functional assay
[19] = target: HIV-1 Env of subtype B virus 15-124914 (HIV-1); experiment: cell-based or functional assay
[20] = target: HIV-1 Env of subtype B virus 15-124904 (HIV-1); experiment: cell-based or functional assay
[21] = target: HIV-1 Env of subtype B virus 15-124987 (HIV-1); experiment: cell-based or functional assay
[22] = target: HIV-1 Env of subtype B virus 15-101757 (HIV-1); experiment: cell-based or functional assay
[23] = target: HIV-1 Env of subtype B virus 15-124975 (HIV-1); experiment: cell-based or functional assay
[24] = target: HIV-1 Env of subtype B virus 15-124963 (HIV-1); experiment: cell-based or functional assay
[25] = target: HIV-1 Env of subtype B virus 15-124918 (HIV-1); experiment: cell-based or functional assay
[26] = target: HIV-1 Env of subtype B virus 15-124950 (HIV-1); experiment: cell-based or functional assay
[27] = target: HIV-1 Env of subtype B virus 15-124986 (HIV-1); experiment: cell-based or functional assay
[28] = target: HIV-1 Env of subtype B virus 15-124906 (HIV-1); experiment: cell-based or functional assay
[29] = target: HIV-1 Env of subtype B virus 15-124962 (HIV-1); experiment: cell-based or functional assay
[30] = target: HIV-1 Env of subtype B virus 15-124970 (HIV-1); experiment: cell-based or functional assay
gp140 BaL = target: T2, gp140 BaL (HIV-1 strain BaL); experiment: ELISA, gp140 coated
T2 construct: domain: gp140
Method: (§2) The in vitro binding characteristics of antibodies for both the antigen (HIV gp120) and Fc binding receptors (FcγRs, FcRn) were determined using an Enzyme-Linked Immunosorbant Assay (ELISA).

gp140 SHIV SF162P3 = target: T3, gp140 SHIV SF162P3 (SHIV SF162P3); experiment: ELISA, gp140 coated
T3 construct: domain: gp140; also called SHIV gp140
Method: as §2

[31] = target: HIV-1 92US727 Env (on virus) (HIV-1 isolate 92US727); experiment: cell-based or functional assay
HIV-1 BaL Env (on virus) = HIV-1 BaL Env (on virus) (HIV-1 strain BaL); experiment: cell-based or functional assay
[32] = target: HIV-1 93HT593 Env (on virus) (HIV-1 isolate 93HT593); experiment: cell-based or functional assay
[33] = target: HIV-1 92US657 Env (on virus) (HIV-1 isolate 92US657); experiment: cell-based or functional assay
[34] = target: HIV-1 92US712 Env (on virus) (HIV-1 isolate 92US712); experiment: cell-based or functional assay

Chain of human FcγRIIIA on primary NK effector cells (P08637 17-254): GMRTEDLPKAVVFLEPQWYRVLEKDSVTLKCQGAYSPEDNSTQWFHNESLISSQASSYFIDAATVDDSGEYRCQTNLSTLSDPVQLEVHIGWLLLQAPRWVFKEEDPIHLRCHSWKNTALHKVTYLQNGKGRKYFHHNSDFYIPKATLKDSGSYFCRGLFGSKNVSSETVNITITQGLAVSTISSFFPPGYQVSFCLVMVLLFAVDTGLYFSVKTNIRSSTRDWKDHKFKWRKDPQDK
T1 sequence (P55899 24-297 limits assumed, chain 1 of 2): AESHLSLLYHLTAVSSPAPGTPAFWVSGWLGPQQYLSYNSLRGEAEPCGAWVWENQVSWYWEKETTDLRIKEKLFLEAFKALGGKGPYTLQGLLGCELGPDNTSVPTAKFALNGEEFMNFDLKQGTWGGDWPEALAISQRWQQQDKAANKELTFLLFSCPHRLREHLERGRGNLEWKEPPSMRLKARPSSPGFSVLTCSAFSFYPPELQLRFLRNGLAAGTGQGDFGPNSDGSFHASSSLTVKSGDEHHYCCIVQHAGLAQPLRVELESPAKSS
T1 sequence (P61769 21-119 limits assumed, chain 2 of 2): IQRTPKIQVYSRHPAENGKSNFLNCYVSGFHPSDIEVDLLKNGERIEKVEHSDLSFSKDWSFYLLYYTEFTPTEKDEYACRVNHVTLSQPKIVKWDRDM

B1: PGT121.60 hIgG1/hLambda (antibody)
heavy: QMQLQESGPGLVKPSETLSLTCSVSGASISDSYWSWIRRSPGKGLEWIGYVHKSGDTNYNPSLKSRVHLSLDTSKNQVSLSLTGVTAADSGKYYCARTLHGRRIYGIVAFNEWFTYFYMDVWGTGTQVTVSSASTKGPSVFPLAPSSKSTSGGTAALGCLVKDYFPEPVTVSWNSGALTSGVHTFPAVLQSSGLYSLSSVVTVPSSSLGTQTYICNVNHKPSNTKVDKKVEPKSCDKTHTCPPCPAPELLAGPDVFLFPPKPKDTLMISRTPEVTCVVVDVSHEDPEVKFNWYVDGVEVHNAKTKPREEQYNSTYRVVSVLTVLHQDWLNGKEYKCKVSNKALPLPEEKTISKAKGQPREPQVYTLPPSREEMTKNQVSLTCLVKGFYPSDIAVEWESNGQPENNYKTTPPVLDSDGSFFLYSKLTVDKSRWQQGNVFSCSVLHEALHSHYTQKSLSLSPGK
light: not shown
For B1, the “ADCC AUC, NK donor A4813, primary CD4+ T cells infected with HT593” value [1] was 185, the “ADCC AUC, NK donor A4813, primary CD4+ T cells infected with US657” value [1] was 220 and the “ADCC EC50, NK donor A4813, primary CD4+ T cells infected with HT593” value [1] was 0.7 nM. For the same binder, the “ADCC EC50, NK donor A4813, primary CD4+ T cells infected with US657” value [1] was 1.2 nM, the “ADCC Emax, NK donor A4813, primary CD4+ T cells infected with HT593” value [1] was 67% and the “ADCC Emax, NK donor A4813, primary CD4+ T cells infected with US657” value [1] was 72%. For the same binder, the EC50 (Human FcRn [2]) was 0.22 nM, the “Ratio pH 7.0/6.0” value (Human FcRn [3]) was 355 and the EC50 (Human FcRn [4]) was 78 nM. The “Fold vs PGT121” value (Human FcRn [5]) was 11 fold, the “PGT121 IC50/PGT121.60 IC50” value [6] was 1.2 fold and the “neutralization IC50” value [6] was 0.0077 µg/mL. The “PGT121 IC50/PGT121.60 IC50” value [7] was 2.5 fold, the “neutralization IC50” value [7] was 0.0058 µg/mL and the “PGT121 IC50/PGT121.60 IC50” value [8] was 3.3 fold. For the same binder, the “neutralization IC50” value [8] was 0.0113 µg/mL, the “PGT121 IC50/PGT121.60 IC50” value [9] was 0.7 fold and the “neutralization IC50” value [9] was 3.31 µg/mL. The “PGT121 IC50/PGT121.60 IC50” value [10] was 1.2 fold, the “neutralization IC50” value [10] was 0.0071 µg/mL and the “PGT121 IC50/PGT121.60 IC50” value [11] was 2.2 fold. For the same binder, the “neutralization IC50” value [11] was 0.955 µg/mL, the “PGT121 IC50/PGT121.60 IC50” value [12] was 2.9 fold and the “neutralization IC50” value [12] was 0.0076 µg/mL. For the same binder, the “PGT121 IC50/PGT121.60 IC50” value [13] was 1.7 fold, the “neutralization IC50” value [13] was 0.141 µg/mL and the “PGT121 IC50/PGT121.60 IC50” value [14] was 4.1 fold. For the same binder, the “neutralization IC50” value [14] was 0.001 µg/mL, the “PGT121 IC50/PGT121.60 IC50” value [15] was 3.6 fold and the “neutralization IC50” value [15] was 1.84 µg/mL. For the same binder, the “PGT121 IC50/PGT121.60 IC50” value [16] was 12.1 fold, the “neutralization IC50” value [16] was 0.797 µg/mL and the “PGT121 IC50/PGT121.60 IC50” value [17] was 3.5 fold. For the same binder, the “neutralization IC50” value [17] was 0.0128 µg/mL, the “PGT121 IC50/PGT121.60 IC50” value [18] was 3.5 fold and the “neutralization IC50” value [18] was 0.0026 µg/mL. The “PGT121 IC50/PGT121.60 IC50” value [19] was 3 fold, the “neutralization IC50” value [19] was 0.002 µg/mL and the “PGT121 IC50/PGT121.60 IC50” value [20] was 3.1 fold. For the same binder, the “neutralization IC50” value [20] was 0.0121 µg/mL, the “PGT121 IC50/PGT121.60 IC50” value [21] was 3.1 fold and the “neutralization IC50” value [21] was 0.0163 µg/mL. For the same binder, the “PGT121 IC50/PGT121.60 IC50” value [22] was 4.7 fold, the “neutralization IC50” value [22] was 0.0132 µg/mL and the “PGT121 IC50/PGT121.60 IC50” value [23] was 5.5 fold. For the same binder, the “neutralization IC50” value [23] was 0.105 µg/mL, the “PGT121 IC50/PGT121.60 IC50” value [24] was 8.2 fold and the “neutralization IC50” value [24] was 2.05 µg/mL. For the same binder, the “PGT121 IC50/PGT121.60 IC50” value [25] was 3 fold, the “neutralization IC50” value [25] was 0.0018 µg/mL and the “PGT121 IC50/PGT121.60 IC50” value [26] was 3 fold. The “neutralization IC50” value [26] was 0.0995 µg/mL, the “PGT121 IC50/PGT121.60 IC50” value [27] was 3.2 fold and the “neutralization IC50” value [27] was 0.0015 µg/mL. For the same binder, the “PGT121 IC50/PGT121.60 IC50” value [28] was 5.3 fold, the “neutralization IC50” value [28] was 0.0103 µg/mL and the “PGT121 IC50/PGT121.60 IC50” value [29] was 3.4 fold. The “neutralization IC50” value [29] was 0.0277 µg/mL, the “PGT121 IC50/PGT121.60 IC50” value [30] was 3.9 fold and the “neutralization IC50” value [30] was 0.0285 µg/mL.

B2: PGT121.56 hIgG1/hLambda (antibody)
heavy: B1 heavy with N60S, H68N, T83V, G84A, V85A, T124N
light: not shown
With B2 the EC50 (gp140 BaL) was 0.59 nM, the EC50 (gp140 SHIV SF162P3) was 0.48 nM and the “neutralization IC50, HIV-1 US727, CEM.NKr.CCR5.Luc assay” value [31] was 0.011 µg/mL. For the same binder, the “neutralization IC50, HIV-1 BaL, CEM.NKr.CCR5.Luc assay” value (HIV-1 BaL Env (on virus)) was 0.02 µg/mL, the “neutralization IC50, HIV-1 HT593, CEM.NKr.CCR5.Luc assay” value [32] was 0.164 µg/mL and the “neutralization IC50, HIV-1 US657, CEM.NKr.CCR5.Luc assay” value [33] was 0.142 µg/mL. For the same binder, the “neutralization IC50, HIV-1 US712, CEM.NKr.CCR5.Luc assay” value [34] was 0.019 µg/mL.
